In paper PMC7332966:

Tests used:
[1] = biological target: FANCI R1285Q;FANCD2 (D2) (Homo sapiens;Homo sapiens, UniProt Q9NVI1;Q9BXW9 1-1328;1-1451, R1285Q|); assay: PIFE; minor, insignificant reduction vs WT I+D2; Kd only in bar graph; EMSA: 16 mM Tris-HCl pH 8, 150 mM NaCl, 4.4% glycerol, 0.07 mg/ml BSA, 7 mM DTT, 4 mM EDTA, 2 nM DNA, on ice 20 min, 4% PAGE in 0.5x TBE (4 C). PIFE: 150 mM NaCl, 125 nM DNA, 22 C.; details: protein: recombinant;recombinant; tags: His6 (N-term);FLAG (EMSA); His6-3C, cleaved in some cases; copies: 1;1; label: 5' IRDye700 on both strands; blunt
[2] = biological target: FANCI (I);FANCD2 (D2) (Homo sapiens;Homo sapiens, UniProt Q9NVI1;Q9BXW9 1-1328;1-1451, |); assay: PIFE; 150 mM NaCl; Kd only in bar graph; EMSA: 16 mM Tris-HCl pH 8, 150 mM NaCl, 4.4% glycerol, 0.07 mg/ml BSA, 7 mM DTT, 4 mM EDTA, 2 nM DNA, on ice 20 min, 4% PAGE in 0.5x TBE (4 C). PIFE: 150 mM NaCl, 125 nM DNA, 22 C.; details: protein: recombinant;recombinant; tags: His6-TEV-V5 (N-term); His6-3C, cleaved in some cases; copies: 1;1; label: 5' IRDye700 on both strands; blunt
Chain of FANCI (I);FANCD2 (D2) (Q9NVI1 whole entry, chain 1 of 2): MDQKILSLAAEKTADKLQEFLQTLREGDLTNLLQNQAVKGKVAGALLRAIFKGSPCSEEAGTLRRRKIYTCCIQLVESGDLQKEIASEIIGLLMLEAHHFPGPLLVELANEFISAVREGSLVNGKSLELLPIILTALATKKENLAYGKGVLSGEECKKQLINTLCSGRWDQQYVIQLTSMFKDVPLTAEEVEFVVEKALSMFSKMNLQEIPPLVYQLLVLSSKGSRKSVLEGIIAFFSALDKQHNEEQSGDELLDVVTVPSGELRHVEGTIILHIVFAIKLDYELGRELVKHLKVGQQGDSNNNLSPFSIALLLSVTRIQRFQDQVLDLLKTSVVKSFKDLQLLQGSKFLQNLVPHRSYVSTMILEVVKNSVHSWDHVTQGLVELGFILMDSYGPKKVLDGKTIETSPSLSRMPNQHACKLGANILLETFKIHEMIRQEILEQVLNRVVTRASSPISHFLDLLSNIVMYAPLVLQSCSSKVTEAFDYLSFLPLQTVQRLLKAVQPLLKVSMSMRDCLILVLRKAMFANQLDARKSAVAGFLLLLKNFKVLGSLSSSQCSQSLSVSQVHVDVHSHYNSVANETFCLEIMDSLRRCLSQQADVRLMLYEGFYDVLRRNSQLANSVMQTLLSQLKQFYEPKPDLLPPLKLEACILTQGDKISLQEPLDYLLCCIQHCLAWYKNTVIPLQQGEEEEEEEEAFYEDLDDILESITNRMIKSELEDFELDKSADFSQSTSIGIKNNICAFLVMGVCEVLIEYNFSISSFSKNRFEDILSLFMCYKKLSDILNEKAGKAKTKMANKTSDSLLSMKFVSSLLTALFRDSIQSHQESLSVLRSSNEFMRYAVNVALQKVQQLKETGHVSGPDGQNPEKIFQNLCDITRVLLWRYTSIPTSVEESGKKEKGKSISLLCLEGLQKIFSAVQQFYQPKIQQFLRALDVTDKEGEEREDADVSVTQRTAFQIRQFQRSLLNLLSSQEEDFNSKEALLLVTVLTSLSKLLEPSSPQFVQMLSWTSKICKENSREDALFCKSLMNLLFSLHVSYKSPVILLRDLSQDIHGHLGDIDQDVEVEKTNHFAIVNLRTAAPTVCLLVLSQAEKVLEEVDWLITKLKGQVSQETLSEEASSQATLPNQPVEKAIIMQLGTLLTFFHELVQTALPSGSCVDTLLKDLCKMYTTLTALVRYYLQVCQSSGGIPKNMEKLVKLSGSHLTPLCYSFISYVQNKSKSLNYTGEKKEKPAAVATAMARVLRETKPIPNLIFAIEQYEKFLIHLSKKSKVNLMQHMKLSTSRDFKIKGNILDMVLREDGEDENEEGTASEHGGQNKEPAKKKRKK
Chain of FANCI (I);FANCD2 (D2) (Q9BXW9 whole entry, chain 2 of 2): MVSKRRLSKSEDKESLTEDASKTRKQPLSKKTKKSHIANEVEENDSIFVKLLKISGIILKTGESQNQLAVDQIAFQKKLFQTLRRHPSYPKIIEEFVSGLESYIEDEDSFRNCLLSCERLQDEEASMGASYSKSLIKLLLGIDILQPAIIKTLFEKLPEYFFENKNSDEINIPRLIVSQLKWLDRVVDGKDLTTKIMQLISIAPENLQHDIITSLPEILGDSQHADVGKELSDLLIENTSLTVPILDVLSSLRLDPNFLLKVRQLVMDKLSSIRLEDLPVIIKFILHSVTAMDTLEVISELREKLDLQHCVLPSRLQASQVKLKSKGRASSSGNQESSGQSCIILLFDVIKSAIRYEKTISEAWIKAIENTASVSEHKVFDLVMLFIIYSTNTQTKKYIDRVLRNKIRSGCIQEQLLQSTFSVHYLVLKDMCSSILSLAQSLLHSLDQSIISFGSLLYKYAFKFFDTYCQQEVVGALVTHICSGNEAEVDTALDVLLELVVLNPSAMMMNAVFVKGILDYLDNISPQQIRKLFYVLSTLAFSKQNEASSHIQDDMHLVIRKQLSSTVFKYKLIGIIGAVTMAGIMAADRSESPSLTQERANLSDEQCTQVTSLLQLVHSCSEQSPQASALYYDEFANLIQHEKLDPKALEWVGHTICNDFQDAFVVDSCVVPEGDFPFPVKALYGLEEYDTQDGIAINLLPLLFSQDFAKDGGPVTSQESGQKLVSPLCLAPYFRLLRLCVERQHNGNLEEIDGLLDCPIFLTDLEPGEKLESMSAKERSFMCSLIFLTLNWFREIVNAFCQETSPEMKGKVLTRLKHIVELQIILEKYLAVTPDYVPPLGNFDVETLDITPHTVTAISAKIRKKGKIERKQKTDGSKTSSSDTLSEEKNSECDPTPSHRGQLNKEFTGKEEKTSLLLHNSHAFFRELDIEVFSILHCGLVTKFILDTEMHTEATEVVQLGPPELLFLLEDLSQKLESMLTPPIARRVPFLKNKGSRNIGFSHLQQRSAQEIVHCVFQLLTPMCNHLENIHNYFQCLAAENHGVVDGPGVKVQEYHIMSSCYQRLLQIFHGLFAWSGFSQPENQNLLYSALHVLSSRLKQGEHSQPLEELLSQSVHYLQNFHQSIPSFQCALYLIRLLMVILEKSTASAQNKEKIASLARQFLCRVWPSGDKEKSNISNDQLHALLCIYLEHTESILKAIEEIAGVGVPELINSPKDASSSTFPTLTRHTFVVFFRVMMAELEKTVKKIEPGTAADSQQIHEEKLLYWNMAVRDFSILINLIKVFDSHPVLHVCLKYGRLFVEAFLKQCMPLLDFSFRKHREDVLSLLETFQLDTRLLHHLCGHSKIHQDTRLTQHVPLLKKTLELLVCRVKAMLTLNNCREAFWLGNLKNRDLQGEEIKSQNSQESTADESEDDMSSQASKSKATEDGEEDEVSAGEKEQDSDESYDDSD

Chain of FANCI R1285Q;FANCD2 (D2) (Q9NVI1 whole entry R1285Q, chain 1 of 2): as the sequence (Q9NVI1 whole entry, chain 1 of 2) above, with R1285Q counted along it
Chain of FANCI R1285Q;FANCD2 (D2) (Q9BXW9 whole entry, chain 2 of 2): as the sequence (Q9BXW9 whole entry, chain 2 of 2) above

B1: ds32F (dsDNA)
DNA 1: CGATCGGTAACGTATGCTGAATCTGGTGCTGG
DNA 2: CCAGCACCAGATTCAGCATACGTTACCGATCG
binding result [1]: binds
binding result [2]: binds
